The results in this text go back to patent US20160009813A1 (Memorial Sloan Kettering, published 2016).

This assay deals with T1, human CD19 (human, UniProt P15391 20-556).
T1 sequence (looked up): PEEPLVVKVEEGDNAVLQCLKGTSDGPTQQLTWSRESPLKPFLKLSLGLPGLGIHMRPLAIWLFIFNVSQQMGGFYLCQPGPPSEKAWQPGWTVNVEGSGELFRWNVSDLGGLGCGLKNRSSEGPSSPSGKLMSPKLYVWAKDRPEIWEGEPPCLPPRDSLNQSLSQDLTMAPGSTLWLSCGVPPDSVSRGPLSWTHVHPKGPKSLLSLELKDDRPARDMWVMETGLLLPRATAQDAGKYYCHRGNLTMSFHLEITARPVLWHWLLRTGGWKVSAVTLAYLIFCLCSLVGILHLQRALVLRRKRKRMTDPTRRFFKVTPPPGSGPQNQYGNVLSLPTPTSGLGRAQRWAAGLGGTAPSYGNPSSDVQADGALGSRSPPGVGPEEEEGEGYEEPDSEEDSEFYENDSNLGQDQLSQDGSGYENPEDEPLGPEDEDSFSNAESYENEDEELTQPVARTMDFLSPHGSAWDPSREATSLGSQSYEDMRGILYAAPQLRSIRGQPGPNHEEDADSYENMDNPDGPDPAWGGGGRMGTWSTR
Put plainly: cell-based or functional assay.

B1: 1928z chimeric antigen receptor (CD19-specific second-generation CAR: SJ25C1-derived scFv, CD28, CD3 zeta) (receptor)
chain: EVKLQQSGAELVRPGSSVKISCKASGYAFSSYWMNWVKQRPGQGLEWIGQIYPGDGDTNYNGKFKGQATLTADKSSSTAYMQLSGLTSEDSAVYFCARKTISSVVDFYFDYWGQGTTVTVSSGGGGSGGGGSGGGGSDIELTQSPKFMSTSVGDRVSVTCKASQNVGTNVAWYQQKPGQSPKPLIYSATYRNSGVPDRFTGSGSGTDFTLTITNVQSKDLADYFCQQYNRYPYTSGGGTKLEIKRAAAIEVMYPPPYLDNEKSNGTIIHVKGKHLCPSPLFPGPSKPFWVLVVVGGVLACYSLLVTVAFIIFWVRSKRSRLLHSDYMNMTPRRPGPTRKHYQPYAPPRDFAAYRSRVKFSRSAEPPAYQQGQNQLYNELNLGRREEYDVLDKRRGRDPEMGGKPRRKNPQEGLYNELQKDKMAEAYSEIGMKGERRRGKGHDGLYQGLSTATKDTYDALHMQALPPR
For the molecule B1, the “expansion after one stimulation with 3T3-CD19 cells (mean)” value turned out to be 20 fold and the “expansion after three weekly stimulations with 3T3-CD19 cells” value was approximately 1000 fold.
